Assay results taken from patent publication US20150139900A1 (BIOARCTIC NEUROSCIENCE, published 2015).

Legend:
[1] = molecular target: T1, HNE-stabilized human α-synuclein protofibrils (human, UniProt P37840 1-140); test: competition ELISA
[2] = molecular target: ONE-stabilized human α-synuclein protofibrils (human, UniProt P37840 1-140); test: competition ELISA
α-synuclein monomers = α-synuclein monomers (human, UniProt P37840 1-140); test: competition ELISA, antigen in solution against plate coated with protofibrils
Protocol: (§1) Specifically, a high-binding ELISA microtiter plate was coated with 100 μl/well of 1 μg/ml of α-synuclein protofibril, diluted in 1×PBS, sealed with adhesive sealer and incubated overnight at +4° C. Then, the coating solution was discarded and the residual binding capacity of the plate was blocked by adding 200 μl/well of PBS-Tween 20 (0.05%). The sealed plate was incubated for 60 min at room temperature (R.T.) by shaking at 900 rpm.
(§2) Meanwhile, peptide solution was prepared in 1×PBS-Tween 20 (0.05%) by diluting α-synuclein monomers or protofibril to a concentration of 140 nM. A 10-step 3× dilution series of α-synuclein monomers and protofibrils was performed in a volume of 50 μl in a round bottomed, low protein binding microtiter plate. To this solution, 50 μl of the tested antibody diluted in PBS-Tween 20 (0.05%) to a concentration of 100 ng/ml was added and allowed to interact for 60 min at R.T. by shaking at 900 rpm. Sub sequentially, these pre-incubated samples were added to the washed (3× wash) coated high-binding plate and allowed to incubate for 15 min at R.T. without shaking. The ELISA plate was then washed to remove unbound antibodies.
(§3) Finally, the ELISA plate was washed to remove unbound antibodies and 100 μl of ALP-substrate were added to each well. The plate was kept dark during incubation at R.T. until a yellow color developed. Absorbance values were measured on continuous mode at a wavelength of 405 nm every 15 minutes up to 120 minutes.

[3] = molecular target: T1, HNE-stabilized human α-synuclein …; test: as above
Protocol: as §1, §2, §3

Measured: binding result

B1: mAb48B11/8 (antibody, V domains shown)
VH: EVQLQESGPSLVKPSQTLSLTCSVTGDSFTSGYWNWIRKFPGNKLEYMGYIRYSGNTYYNPSLKSRISITRDTSKNQYYLQLISVTTEDTATFYCARSYYDYDRAWFAYWGQGALVTVSA
VL: DVVMTQTPLSLPVSLGDQASISCRSSQSLVHSNGNTYLHWYLQKPGQSPKLLIYKVSNRFSGVPDRFSGSGSGTDFTLKISRVEAEDLGVYFCSQSTHVPWTFGGGTKLEIK
notes: Mouse monoclonal antibody from hybridoma; also called BA4
binds: [1] | [2] | α-synuclein monomers

B2: mAb38F11/2-8 (antibody, V domains shown)
VH: EVMLVESGGGLVKPGGSLKLSCAASGFTFSSYAMSWVRQTPEKRLEWVATISNGGSYTYYPDSVKGRFTISRDNAKNTLYLQMSSLRSEDTAMYYCARHSDYSGAWFAYWGQGTLVTVSA
VL: QIVLTQSPAIMSASPGEKVTISCSASSSVSYMYWYQQKPGSSPKPWIYRTSNLASGVPARFSGSGSGTSYSLTISSMEAEDAATYYCQQYHSYPYTFGGGTKLEIK
notes: Mouse monoclonal antibody from hybridoma; also called BA3
binds: [1] | [2] | α-synuclein monomers

B3: mAb49/G (antibody, V domains shown)
VH: EVQLVETGGGLVQPKGSLKLSCATSGFTFNTYAMNWVRQAPGKGLEWVARIRTKSNDYATYYADSVKGRITISRDDSQSMLYLQMNNLKTEDTAMYYCVRVGYRPYAMDYWGQGTSVTVSS
VL: DVLMTQTPLSLPVSLGDQASISCRSSQNIVHSNGNTYLEWYLQKPGQSPTLLIYKVSNRFSGVPDRFSGSGSGTDFTLKISRVEAEDLGVYYCFQGSHVPLTFGAGTKLELK
notes: Mouse monoclonal antibody from hybridoma, detected with anti-mouse IgG; constant regions are not; also called BA1
binds: [2] | [3] | α-synuclein monomers
